The source of these data is patent publication US12648996B2, “RNA aptamers and uses thereof” (UNIVERSITY OF MIAMI, priority 2019, dated 2026).

Series [1] relates to 4T1 mammary carcinoma. In words: Therapeutic efficacy and toxicity in 4T1 bearing BALB/c mice. It is filed as in vivo, mouse. As for the experimental part: FIGS. 7A-7C. TIMC-specific aptamers increase doxorubicin therapeutic index. […] Treatment was repeated 2 and 6 days later. […] Weight loss as measure of toxicity is reported. […] Survival was monitored.
Aptamer-Doxorubicin treatment: Aptamer-doxorubicin was prepared by making DNA template with the appropriate aptamer followed by a GC-rich primer sequence downstream (GC rich Sul3′, FIG. 11. From this template, RNA was transcribed and purified as described above. Doxorubicin (Sigma) was mixed with the RNA sequence as needed. Doxil (ALZA corporation) was purchased through the University of Miami pharmacy.
BALB/c mice were injected IV with the 4T1 luciferase thy1.1 tumor cell line. Treatment was started when tumors reached 5 mm of diameter and repeated 2 and 6 days later. Tumor growth and mice weight was reported. Mice were evaluated at least 3 times a week and humanely euthanized when tumor size index reached 150 mm^2 or if they lose >20% of initial weight due to chemotherapy or tumor growth in compliance with the IACUC policy and animal protocol. Data are expressed as tumor size index defined as the product of the main diameter with the perpendicular one.
Next, the therapeutic efficacies of doxorubicin delivered by TIMC-specific aptamers was compared by PEGylated liposomes (Doxil, the first clinically available nanoparticle that became the gold standard for doxorubicin treatment (34, 35)), and as unconjugated molecules. Briefly, 4T1 bearing BALB/c mice were treated with unconjugated DOX at dose high, or low dose, or with low doses of DOX conjugated to the TIMC-specific aptamer, or with Doxil (low dose—0.35 mg/kg). Treatment was repeated 2 and 6 days later. As additional controls, mice were treated with unconjugated aptamers, irrelevant aptamers conjugated with doxorubicin, or left untreated.

Series [2] deals with tumor infiltrating myeloid cells (4T1 tumor). In words: Flow cytometry of Cy3-labelled monoclonal aptamers on single cell suspensions from tumor and spleen of 4T1 bearing mice. The settings on record: tumor and spleen of 4T1 challenged mice; splenic MDSCs and CD11b- cells p>0.05. It is filed as cell-based, mouse. The source says:
FIGS. 2A-C. […] FIG. 2A) Single cell suspensions from spleens and tumors of mice pooled from 3 mice bearing the 4T1 tumor (0.5 cm in diameter) were labelled with antibodies against CD11b, Ly6C, Ly6G and the 15 Cy3-labelled monoclonal aptamers identified by APTANI. Data derived from n=5 biological replica and derived from n=2 independent experiments. Aptamers 3 (SEQ ID NO: 3), 6 (SEQ ID NO: 6), 11 (SEQ ID NO: 11), and 14 (SEQ ID NO: 14) were chosen for further analysis and are in bold. *=P<0.001 by one-way ANOVA and post-hoc Holm-Sidak comparisons versus irrelevant aptamer. […] FIG. 2B) Secondary structure of aptamers 3 (SEQ ID NO: 3), 6 (SEQ ID NO: 6), 11 (SEQ ID NO: 11), and 14 (SEQ ID NO: 14). Binding motifs identified by APTANI are underlined in black. Fluorinated nucleotides are highlighted in gray. FIG. 2C) An equimolar mixture of the aptamers increases the specificity for tumor infiltrating myeloid cells. Pooled single cell suspension of tumor or spleen from 4T1 bearing mice were labeled with aptamers 3 (SEQ ID NO: 3), 6 (SEQ ID NO: 6), 11 (SEQ ID NO: 11), and 14 (SEQ ID NO: 14), or equimolar mixtures of each aptamer and analyzed by FACS. Data derived from n=3 independent experiments.
(§1) Flow cytometry: Aptamers were labeled with Cy3 using the Silencer siRNA Labeling Kit—Cy3 (Ambion) and 37 pmoles were used to label 5×10^6 cells unless otherwise specified. In some experiments biotinylated aptamers were labelled with streptavidin conjugated with Alexa Fluor 647 or Alexa Fluor 750 and purified from unbound aptamer by Ultra-4 centrifugal filters, […] (Millipore).
(§2) Dead cells were excluded by the analysis by using 4′,6′-diamidino-2-phenylindole (DAPI; Sigma) or Live/Dead dye (Invitrogen). Samples were read on a LSR2 equipped with 405 nm, 488 nm, 532 nm, and 635 nm lasers (BD Bioscience). Data were analyzed using FCS6 express software (Denovo-Software).
These 15 aptamers were tested by flow cytometry against single cell suspensions from tumor and spleen of mice challenged with the 4T1 tumor (FIG. 2A).
Next, whether an equimolar mixture of aptamers 3, 6, 11 and 14 was more efficient in recognizing TIMC as compared to each individual aptamer was evaluated.

Series [3] concerns TIMC from 4T1, CT26, RENCA, B16LU8, MCA203, E0771 tumors. Briefly: Staining of single cell suspensions from tumor, bone marrow, spleen and lungs in multiple mouse tumor models. It is filed as cell-based. The settings on record: BALB/c (4T1, CT26, RENCA) and C57Bl/6 (B16LU8, MCA203, E0771) tumor models.
Description: as §1, §2
The binding properties of monoclonal RNA aptamers 3, 6, 11 and 14 were evaluated in other tumor models. Aptamers 3, 6, 11, or 14 single cell suspensions were stained from tumor, bone marrow, spleen, and lungs of BALB/c mice bearing the 4T1 mammary carcinoma, the CT26 colon carcinoma, or the RENCA renal carcinoma. Similar analysis was performed on single cell suspensions from C57Bl/6 mice bearing B16LU8 melanoma, MCA203 fibrosarcoma or E0771 mammary carcinoma.

Series [4] relates to 4T1 tumors and tissues arrays from naïve mice. Briefly: Immunofluorescence microscopy on 4T1 tumors and tissues arrays from naïve mice. Set-up: species or system mouse. As for the experimental part: Immunofluorescence microscopy and Image cytometry: Fresh frozen tissue and tissues microarrays (AMSBIO) were fixed in 10% neutral-buffered formalin (BDH) for 15′ at RT, incubated with dextran sulfate sodium/PBS (1:2 m/V—Pharmacia biotech) for 30′ and washed with PBS. Tissues were then stained with Cy3-labelled aptamer (10 ug/ml) in PBS for 30′, masked with 2% BSA, and counterstained with antibodies and/or DAPI.
Specificity was further evaluated by immunofluorescence microscopy using 4T1 tumors and tissues arrays from naïve mice.

Series [5] can be described thus: Aptamer-based immunoprecipitation and mass spectrometry (target identification). The settings on record: immunoprecipitation, mass spectrometry. The protocol: (§3) FIG. 4A-4E. Characteristics of aptamers that preferentially recognize tumor infiltrating myeloid cells. FIG. 4A) Affinity of the aptamers for IL4 treated MSC2 cells was determined by FACS. Putative targets (ANXA4 and VIM) were identified via aptamer-based immunoprecipitation, SDS page, and mass spec analysis. Kds against ligands was determined by FACS against recombinant protein conjugated to epoxy beads. FIG. 4B) Epoxy beads conjugated with ANXA4 or irrelevant protein were stained with Cy3-labelled aptamer 3 or irrelevant aptamer and analyzed by FACS. FIG. 4C) Epoxy beads conjugated with vimentin or irrelevant protein were stained with Cy3-labelled aptamer 11 or irrelevant aptamer and analyzed by FACS. FIG. 4D) ANXA4 competitive assay. 5×10^5 IL4 treated MSC2 were stained with aptamer 3 in the presence or in the absence of recombinant ANXA4. FIG. 4E) MCS2 cells were transfected via the 4PD nanoparticle with shRNA against vimentin or with a scrambled shRNA. 4 days later cells were stained with Cy3-labelled aptamer 11 and DAPI. Pa=One-way ANOVA p value. Data derived from n=2 independent experiments.
The specificity of aptamer 3 for ANXA4 and aptamer 11 for vimentin were tested by competitive experiments (FIG. 4D) and with validated shRNA (29) (FIG. 4E), respectively.

In series [6] the target is T1, annexin A4 (ANXA4) (Mus musculus, UniProt P97429).
T1 construct: purchased myBiosource
T1 sequence (P97429 1-319): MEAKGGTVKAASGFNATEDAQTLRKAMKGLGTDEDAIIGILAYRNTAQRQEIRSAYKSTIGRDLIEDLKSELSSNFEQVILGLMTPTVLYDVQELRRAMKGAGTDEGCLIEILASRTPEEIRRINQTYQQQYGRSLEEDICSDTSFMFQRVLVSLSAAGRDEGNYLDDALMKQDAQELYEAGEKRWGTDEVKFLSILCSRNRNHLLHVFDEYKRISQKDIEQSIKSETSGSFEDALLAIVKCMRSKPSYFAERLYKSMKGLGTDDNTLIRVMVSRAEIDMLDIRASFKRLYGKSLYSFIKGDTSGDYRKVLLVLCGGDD
Briefly: FACS of epoxy beads conjugated with recombinant ANXA4. The settings on record: beads loaded with relevant or irrelevant recombinant proteins. In kind it is binding. As for the experimental part: as §3
(§4) FIG. 8A and FIG. 8B. Affinity of aptamers #3 (SEQ ID NO: 3), #6 (SEQ ID NO: 6), #11 (SEQ ID NO: 11) and #14 (SEQ ID NO: 14) for IL4 treated MSC2 or their putative ligand. […] Binding was evaluated by FACS. […] Binding was evaluated by FACS. […]

Series [7] addresses T2, vimentin (VIM) (Mus musculus, UniProt P20152).
T2 construct: purchased myBiosource
In words: FACS of epoxy beads conjugated with recombinant vimentin. It is filed as binding. The settings on record: beads loaded with relevant or irrelevant recombinant proteins. As for the experimental part: as §3, §4

T2 sequence (P20152 whole entry): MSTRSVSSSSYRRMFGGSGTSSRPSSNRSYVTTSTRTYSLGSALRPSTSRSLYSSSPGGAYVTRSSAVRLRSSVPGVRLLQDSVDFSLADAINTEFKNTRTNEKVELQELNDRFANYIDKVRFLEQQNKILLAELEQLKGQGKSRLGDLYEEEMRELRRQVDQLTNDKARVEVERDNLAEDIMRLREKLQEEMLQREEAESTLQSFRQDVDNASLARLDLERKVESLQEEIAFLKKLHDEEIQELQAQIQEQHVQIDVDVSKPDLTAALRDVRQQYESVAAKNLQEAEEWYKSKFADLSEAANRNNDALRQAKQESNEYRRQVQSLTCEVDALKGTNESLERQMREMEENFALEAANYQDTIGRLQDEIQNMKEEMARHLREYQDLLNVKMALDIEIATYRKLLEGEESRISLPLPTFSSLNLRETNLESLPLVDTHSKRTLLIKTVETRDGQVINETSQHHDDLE

Regarding `COc1cccc2c1C(=O)c1c(O)c3c(c(O)c1C2=O)C[C@@](O)(C(=O)CO)C[C@@H]3O[C@H]1C[C@H](N)[C@H](O)[C@H](C)O1` [free doxorubicin, doxorubicin], the “toxicity (body weight loss)” value in series [1] (free DOX high dose 3.5 mg/kg, DOX-aptamer 0.35 mg/kg) is reported as “significant body weight loss”. This molecule came in with a treatment related mortality in series [1] (high doses of free doxorubicin) of 15%. Further, the anti-tumor effect entry in series [1] (i.v., repeated 2 and 6 days later, free DOX high dose 3.5 mg/kg, Doxil and DOX-aptamer low dose 0.35 mg/kg) is on record as “No significant anti-tumor effect”.

B1: aptamer 14: 2'Fluoro-RNA aptamer, SEQ ID NO: 14, specific for tumor infiltrating myeloid cells (nucleic acid)
chain: GGAGGACGAUGCGGUGUACACUGAUUGCCUUUGUGUUAUGAGCGACAGAUCUGCCAGACGACUCGCUGAGGAUCCGAGA
modifications: 2'-fluoro modified RNA, modified positions not given here, Cy3-labelled for binding assays
Regarding B1, in series [2], the “specificity for tumor infiltrating vs splenic myeloid cells” value (from here on “specificity … vs splenic myeloid cells”) is on record as “specific for tumor infiltrating myeloid cells”. In addition, in series [3], the “recognition of TIMC” value is “able to recognize TIMC”. Also, in series [4], the “staining of tissues from naïve mice” value is “recognized intestinal villi and seems to show a nuclear staining of cerebellum, pancreatic acinar tissue, stomach and spleen”. The putative target result in series [5] is “No targets have been identified”.

B2: aptamer 3: 2'Fluoro-RNA aptamer, SEQ ID NO: 3, specific for tumor infiltrating myeloid cells; ligand ANXA4 (nucleic acid)
chain: GGAGGACGAUGCGGAUUACCAACUUGAACGCCGAGAGUGUGGUCACGUGUUCUGCAGACGACUCGCUGAGGAUCCGAGA
modifications: 2'-fluoro modified RNA, modified positions not given here, Cy3-labelled for binding assays
notes: ligand ANXA4
Turning to B2, in series [2], the “specificity … vs splenic myeloid cells” value is given as “specific for tumor infiltrating myeloid cells”. Besides, the “recognition of TIMC” value in series [3] is reported as “able to recognize TIMC”. For the same molecule, the “staining of tissues from naïve mice” value in series [4] is given as “recognized hepatocytes at low intensity”. Besides, the putative target result in series [5] is given as “annexin A4 (ANXA4 isoform X1 P97495)”. Moreover, the “specificity for annexin protein” value in series [6] is listed as “confirmed the specificity”.

B3: aptamer 11: 2'Fluoro-RNA aptamer, SEQ ID NO: 11, specific for tumor infiltrating myeloid cells; ligand vimentin (nucleic acid)
chain: GGAGGACGAUGCGGGGAAGCAACACUUAGUCGCGAUUGAUACGUGCGCAGUCAUCAGACGACUCGCUGAGGAUCCGAGA
modifications: 2'-fluoro modified RNA, modified positions not given here, Cy3-labelled for binding assays
notes: ligand vimentin
In the case of B3, the “specificity … vs splenic myeloid cells” value in series [2] is reported as “specific for tumor infiltrating myeloid cells”. In addition, the “recognition of TIMC” value in series [3] is “able to recognize TIMC”. The putative target result in series [5] is “vimentin (VIM P20152)”. Further, the “specificity for vimentin protein” value in series [7] is given as “confirmed the specificity”.

B4: aptamer 6: 2'Fluoro-RNA aptamer, SEQ ID NO: 6, specific for tumor infiltrating myeloid cells (nucleic acid)
chain: GGAGGACGAUGCGGCAGGUGCGGGAUCUAAUGCGUAGACAGCCAUAUACUGACACAGACGACUCGCUGAGGAUCCGAGA
modifications: 2'-fluoro modified RNA, modified positions not given here, Cy3-labelled for binding assays
Regarding B4, the “specificity … vs splenic myeloid cells” value in series [2] was “specific for tumor infiltrating myeloid cells”. Further, in series [3], the “recognition of TIMC” value is on record as “able to recognize TIMC”. Moreover, in series [4], the “staining of tissues from naïve mice” value was “showed binding for epithelial cells in the uterus and low binding for pancreatic acinar tissue”. The putative target result in series [5] was “No targets have been identified”.
